Experimental data reported in patent US10100317B2, “Compositions of matter that reduce pain, shock, and inflammation by blocking linoleic acid metabolites and uses thereof” (Board of Regents of the University of Texas System, priority 2012, dated 2018).
Entries after “also recorded” stand apart in the source; their conditions may differ.

How the values were obtained:
TRPV1 in the spinal cord = settings: completely reversible by a TRPV1 antagonist; cited from earlier work
[1] = test system: TRPV1 knock-out (KO) mice; assay: LA-triggered nocifensive behaviors in TRPV1 knock-out versus wild type mice (FIG. 3C); assay type: in vivo; settings: TRPV1 KO mice compared to wild type mice
normal rats = assay: Spontaneous nocifensive behaviors after linoleic acid injection in normal rats (FIG. 3A); assay type: in vivo, rat
[2] = test system: LA-evoked nofifensive behaviors; assay: LA-evoked nocifensive behaviors after capsazepine pretreatment (FIG. 3B); assay type: in vivo; settings: pretreatment before linoleic acid
[3] = test system: cultured capsaicin-sensitive neurons; assay: Patch clamp electrophysiology of cultured capsaicin-sensitive neurons; assay type: cell-based
[4] = SPR analysis (Biacore X100) with immobilized 13(S)-HODE-Biotin; assay type: binding; settings: CM5 chip, 1×HBS-EP+ buffer, aptamer 20-80 μM, contact 90 s, dissociation 600 s; read-out: dissociation constant, KD
Procedure: SPR Analysis of H9-3/19F Aptamer and B13-9R Aptamer with 13(S)-HODE-Biotin
(§1) 13(S)-HODE-Biotin was immobilized on a CM5 sensor chip utilizing biotin-streptavidin chemistry. Various concentrations of H9-3/19F aptamer (SEQ ID. NO. 84) were flowed through the Biacore X100 with 1×HBS-EP+ running buffer at a flow rate of 30 μl/min and allowed a contact time with the surface-bound ligand of 90 seconds, followed by a dissociation time set at 600 seconds. The following concentrations of aptamer were used: 20 μM, 40 μM, 60 μM and 80 μM.
as §1, with “B13-9R” for “H9-3/19F”, “67)” for “84)”

[5] = test system: rat hindpaws inflamed with complete Freund's adjuvant (CFA); assay: Pain responses in rat hindpaws inflamed with complete Freund's adjuvant (CFA); assay type: in vivo; settings: local (hindpaw) injection, FIG. 2
[6] = ELASA (ELISA-like) plate screening of aptamers against 9-HODE; assay type: binding; settings: for Affinity ranking in ELASA plate screening: 9-HODE target, three trials, done in triplicate; for Trial 1 Abs 405 nm: ELASA trial 1; for Trial 3 Abs 405 nm: ELASA trial 3
Procedure: (§2) To evaluate, screen, and rank aptamers based on affinity against their cognate HODE isomers, two different approaches are used. The first involved the use of Corning Costar Universal Bind™ microplates (No. 2503) for ultraviolet (UV) immobilization of 200 ng/well of unlabeled HODES to the plate's surface (Bruno et al., 2008 and 2009) using 0.2 Joules/cm^2 in a UV crosslinker oven for 15 minutes. The second involved streptavidin (SAv)-coated microwell strips (Nunc, Inc. Catalogue #436020) in which 400 ng of the biotinylated-13-HODE are immobilized for 30 minutes at RT with gentle mixing in 200 μl of PBS per well.
(§3) Plates or wells are decanted and washed three times in 250 μl of 1×BB. Each of the different 5′-biotinylated aptamers raised against the target is dissolved in 1×BB at 1.00 nmole per 100 microliters and applied to their corresponding plate wells for 1 hour at RT with gentle mixing on an orbital shaker. The plate is decanted and washed three times in 250 μl of 1×BB for at least 5 minutes per wash with gentle mixing. One hundred μl of a 1:2,000 dilution of SAv-peroxidase from a 5 mg/ml stock solution in 1×BB is added per well for 30 minutes at RT with gentle mixing. The plate is decanted and washed three times with 250 μl of 1×BB per well as before.
(§4) One hundred μl of ABTS (2,2′-azino-bis(3-ethylbenzthiazoline-6-sulphonic acid) substrate with stabilized hydrogen peroxide (Kirkegaard Perry Laboratories, Inc., Gaithersburg, Md.) is added per well for 10 minute at RT. Various deletion control wells without biotinylated aptamers or SAv-peroxidase are set up and evaluated to establish background levels as well. Finally absorbance is quantified using a microplate reader with 405 nm optical filter.
(§5) These aptamers were: H9-3/19F and B13-9R for the 9-HODE and biotinylated 13-HODE targets respectively and they proceeded into animal testing.

[7] = ELASA (ELISA-like) plate screening of aptamers against 13-HODE / biotinylated 13-HODE; assay type: binding; settings: for Trial 2 Abs 405 nm: ELASA trial 2; for Trial 2 Abs 405 nm / Trial 3 Abs 405 nm / Trial 1 Abs 405 nm: 13-HODE / biotinylated 13-HODE aptamers, absorbance 10-15 minutes after final addition of ABTS substrate; for Trial 3 Abs 405 nm: ELASA trial 3; for Trial 1 Abs 405 nm: ELASA trial 1; for Affinity ranking in ELASA plate screening: biotinylated 13-HODE target, three trials, done in triplicate
Procedure: as §2, §3, §4, §5

[8] = 9-HODE aptamers, absorbance 10-15 minutes after final addition of ABTS substrate

Molecule: 9-hydroxyoctadecadienoic acid [Aptamer 9-HODE]
- tactile allodynia (TRPV1 in the spinal cord): results in tactile allodynia

Molecule: COc1cc(CNC(=O)CCCC/C=C/C(C)C)ccc1O [capsaicin]
- tactile allodynia (TRPV1 in the spinal cord): results in tactile allodynia

Molecule: CCCCC/C=C\C/C=C\CCCCCCCC(=O)O [linoleic acid, cis, cis-9,12-octadecadienoic acid]
- LA-triggered nocifensive behaviors [1]: significantly reduced
- spontaneous nocifensive behaviors (normal rats): does not produce a significant increase

Molecule: Oc1cc2c(cc1O)CN(C(=S)NCCc1ccc(Cl)cc1)CCC2 [capsasepine]
- LA-evoked nocifensive behaviors [2]: significantly reduced

B1: 5′-ATACGGGAGCCAACACCACCGAATGTGCTGCAGGACTAATCTGGATGGCCATGCAGAGCAGGTGTGACGGAT-3′ (nucleic acid)
DNA: ATACGGGAGCCAACACCACCGAATGTGCTGCAGGACTAATCTGGATGGCCATGCAGAGCAGGTGTGACGGAT
modifications: DNA, backbone not given here
notes: DNA aptamer for the OLAM 9-HODE
- block of capsaicin response (selectivity) ([3]; capsaicin itself / TRPV1 directly): does not block capsaicin itself
- activation of cultured capsaicin-sensitive neurons ([3]; pre-treatment with aptamer, 9-HODE response, preliminary data, FIG. 1): blocks activation
- Kd [4]: 0.129 nM
- pain responses to mechanical stimuli [5]: significant reduction in pain responses
- pain responses to thermal stimuli [5]: significant reduction in pain responses
- Affinity ranking in ELASA plate screening [6]: highest affinity; also recorded: top two to three strongest absorbance signals
- Affinity ranking in ELASA plate screening ([6]; listed as SEQ ID NO. 84): highest binding affinity
- Trial 1 Abs 405 nm [6, 8]: 2.081
- Trial 2 Abs 405 nm ([6]; ELASA trial 2, 9-HODE aptamers, absorbance 10-15 minutes after final addition of ABTS substrate): 1.648
- Trial 3 Abs 405 nm [6, 8]: 1.640

B2: H13-1/2-4/6-8/14-18/20F: DNA aptamer clone, 13-HODE target (nucleic acid)
DNA: ATACGGGAGCCAACACCACAAAGTTTAGCGTTATGCAACTCCCCCTTATACTCGAGAGCAGGTGTGACGGAT
modifications: DNA, backbone not given here
notes: DNA aptamer clone, 13-HODE target
- Trial 2 Abs 405 nm [7]: 1.199
- Trial 3 Abs 405 nm [7]: 1.387

B3: H9-2/4-6/8a/9b/14/20F: DNA aptamer clone, 9-HODE target (nucleic acid)
DNA: ATACGGGAGCCAACACCACAAAGTTTAGCGTTATGCAACTCCCCCTTATACTCGAGAGCAGGTGTGACGGAT
modifications: DNA, backbone not given here
notes: DNA aptamer clone, 9-HODE target
- Trial 3 Abs 405 nm [6, 8]: 1.249

B4: H9-3/19R: DNA aptamer clone, 9-HODE target (nucleic acid)
DNA: ATCCGTCACACCTGCTCTGCATGGCCATCCAGATTAGTCCTGCAGCACATTCGGTGGTGTTGGCTCCCGTAT
modifications: DNA, backbone not given here
notes: as for B3
- Trial 1 Abs 405 nm [6, 8]: 1.571

B5: H13-12F: DNA aptamer clone, 13-HODE target (nucleic acid)
DNA: ATACGGGAGCCAACACCATGTTACATCAACTGCATGAAGACGAGGAATGTGATGAGAGCAGGTGTGACGGAT
modifications: DNA, backbone not given here
notes: as for B2
- Trial 1 Abs 405 nm [7]: 1.442

B6: B13-12R: DNA aptamer clone, biotinylated 13-HODE target (nucleic acid)
DNA: ATCCGTCACACCTGCTCTGCCATTGAATCTCATATGGTGCTCGAGTAGCTGGTGTGGTGTTGGCTCCCGTAT
modifications: DNA, backbone not given here
notes: DNA aptamer clone, biotinylated 13-HODE target
- Trial 3 Abs 405 nm [7]: 1.310

B7: B13-8F: DNA aptamer clone, biotinylated 13-HODE target (nucleic acid)
DNA: ATACGGGAGCCAACACCAGCGAAGCCAAAACTGGTCGGGCCGACGGGATTCGTTAGAGCAGGTGTGACGGAT
modifications: DNA, backbone not given here
notes: as for B6
- Trial 1 Abs 405 nm [7]: 1.490

B8: B13-10bR: DNA aptamer clone, biotinylated 13-HODE target (nucleic acid)
DNA: ATCCGTCACACCTGCTCTGCGGACAGCGGTTGCGCATATATCGTGGCAGTGGGCTGGTGTTGGCTCCCGTAT
modifications: DNA, backbone not given here
notes: as for B6
- Trial 2 Abs 405 nm [7]: 1.214

B9: B13-1a/4/6/15/17/19/20R: DNA aptamer clone, biotinylated 13-HODE target (nucleic acid)
DNA: ATCCGTCACACCTGCTCTCGAGTATAAGGGGGAGTTGCATAACGCTAAACTTTGTGGTGTTGGCTCCCGTAT
modifications: DNA, backbone not given here
notes: as for B6
- Trial 2 Abs 405 nm [7]: 1.595

B10: 5′-ATCCGTCACACCTGCTCTGGGGGGGGAAGCTCGTGGTATAAGGGGCGTTGAGGTGGTGTTGGCTCCCGTAT-3′ (nucleic acid)
DNA: ATCCGTCACACCTGCTCTGGGGGGGGAAGCTCGTGGTATAAGGGGCGTTGAGGTGGTGTTGGCTCCCGTAT
modifications: DNA, backbone not given here
notes: DNA aptamer for the OLAM 13-HODE
- Kd [4]: 2.56 nM
- Trial 1 Abs 405 nm [7]: 1.549
- Trial 2 Abs 405 nm [7]: 1.885
- Trial 3 Abs 405 nm [7]: 1.964
- Affinity ranking in ELASA plate screening [7]: highest affinity; also recorded: top two to three strongest absorbance signals
- Affinity ranking in ELASA plate screening ([7]; listed as SEQ ID NO. 67): highest binding affinity
